Assay results taken from paper PMC3064236.

Target: Mcm2-7 heterohexamer (X. laevis (endogenous in egg extract)) (UniProt P55861)
Experiment: SEC + other: glycerol gradient sedimentation

“Mcm2-7 heterohexamer, P55861 1-886; P49739 1-807; P30664 1-863; P55862 1-735; Q5FWY4 1-821; Q91876 1-720” showed a stoichiometry N (hexamers in the complex) of 2.
